The chains are these.
B1: LINE1-mini (parent)
chain: GGCAGAGCUCAACACAGCGUGGCAAAGUGGCUGUGGCUAGACUGCC

Variants of B1 are the subject of this data set. In words: self-cleavage, relative activity (ratio to wild type); higher = more cleavage; in vitro, sequencing; the parent is a self-cleaving ribozyme.
In the case of GGCGGAGCUCAACACAGCGUGGCAAAGUGGCUGUGGCUAGAUUGCC [A4G C42U], the self-cleavage was determined as 0.22. For GGCGGAGCUCAACACAGCGUGGCAAAGUGGCUGUGGCUAGAAUGCC [A4G C42A], the self-cleavage amounted to 0.09.

Take GGCGGCGCUCAACACAGCGUGGCAAAGUGGCUGUGGCUAGACUGCC [A4G A6C]: the self-cleavage stood at 0.14. Next, GGCGGGGCUCAACACAGCGUGGCAAAGUGGCUGUGGCUAGACUGCC [A4G A6G]: 0.11; GGCGGUGCUCAACACAGCGUGGCAAAGUGGCUGUGGCUAGACUGCC [A4G A6U]: 0.27. Next, GGCGGAGCUCAACACAGAGUGGCAAAGUGGCUGUGGCUAGACUGCC [A4G C18A]: 0.31. The same measure for GGCGGAGCUCAACACAGUGUGGCAAAGUGGCUGUGGCUAGACUGCC [A4G C18U]: 0.55. Take GGCGGAGCUCAACACAGGGUGGCAAAGUGGCUGUGGCUAGACUGCC [A4G C18G]: the self-cleavage is 0.16. The same measure for GGCCGAGCUCAACACAGCGUGGCAAAGUGGCAGUGGCUAGACUGCC [A4C U32A]: 0.18.

GGCCGAGCUCAACACAGCGUGGCAAAGUGGCCGUGGCUAGACUGCC [A4C U32C]: the self-cleavage was determined as 0.1. The same measure for GGCCGAGCUCAACACAGCGUGGCAAAGUGGCGGUGGCUAGACUGCC [A4C U32G]: 0.1.

For the variant GGCGGAGCUCAACACAGCGUGGCAAAGUGGCUGUGGUUAGACUGCC [A4G C37U], the self-cleavage was 0.13. Next, GGCGGAGCUCAACACAGCGUGGCAAAGUGGCUGUGGGUAGACUGCC [A4G C37G]: 0.07; GGCGGAGCUCAACACAGCGUGGCAAAGUGGCUGUGGAUAGACUGCC [A4G C37A]: 0.06. Next, GGCGGAGCUCAACGCAGCGUGGCAAAGUGGCUGUGGCUAGACUGCC [A4G A14G]: 0.2; GGCGGAGCUCAACCCAGCGUGGCAAAGUGGCUGUGGCUAGACUGCC [A4G A14C]: 0.12. The same measure for GGCGGAGCUCAACUCAGCGUGGCAAAGUGGCUGUGGCUAGACUGCC [A4G A14U]: 0.24; for GGCGGAGCUCAACACAGCGUGGCAAAGUGGCUGUGGCUAGUCUGCC [A4G A41U]: 0.3.

On to GGCGGAGCUCAACACAGCGUGGCAAAGUGGCUGUGGCUAGGCUGCC [A4G A41G], for which the self-cleavage was 0.11.

As for GGCGGAGCUCAACACAGCGUGGCAAAGUGGCUGUGGCUAGCCUGCC [A4G A41C], the self-cleavage was 0.19. The same measure for GGCGGAGCUCAACACAGCGUGGUAAAGUGGCUGUGGCUAGACUGCC [A4G C23U]: 0.5.

Consider GGCGGAGCUCAACACAGCGUGGAAAAGUGGCUGUGGCUAGACUGCC [A4G C23A], for which the self-cleavage stood at 0.44.

Regarding GGCGGAGCUCAACACAGCGUGGGAAAGUGGCUGUGGCUAGACUGCC [A4G C23G], the self-cleavage came out at 0.41.

Turning to GGCGGAGCUCAACACAGCAUGGCAAAGUGGCUGUGGCUAGACUGCC [A4G G19A], the self-cleavage came to 0.95. Next, GGCCGAGCUCAACACAGCGUGGCAAAGUGCCUGUGGCUAGACUGCC [A4C G30C]: 0.07; GGCCGAGCUCAACACAGCGUGGCAAAGUGUCUGUGGCUAGACUGCC [A4C G30U]: 0.19. Next, GGCGGAGCUCAGCACAGCGUGGCAAAGUGGCUGUGGCUAGACUGCC [A4G A12G]: 0.05; GGCGGAGCUCAUCACAGCGUGGCAAAGUGGCUGUGGCUAGACUGCC [A4G A12U]: 0.11; GGCGGAGCUCACCACAGCGUGGCAAAGUGGCUGUGGCUAGACUGCC [A4G A12C]: 0.03.

As to GGCGGAGCUCAACACAGCGUGGCCAAGUGGCUGUGGCUAGACUGCC [A4G A24C], the self-cleavage was 0.25. In the case of GGCGGAGCUCAACACAGCGUGGCGAAGUGGCUGUGGCUAGACUGCC [A4G A24G], the self-cleavage was determined as 1.09. With GGCGGAGCUCAACACAGCGUGGCUAAGUGGCUGUGGCUAGACUGCC [A4G A24U], the self-cleavage amounted to 1.02. Next, GGCCGAGCUCAACACAGCGUGGCAAAGUGGCUCUGGCUAGACUGCC [A4C G33C]: 0.04; GGCCGAGCUCAACACAGCGUGGCAAAGUGGCUAUGGCUAGACUGCC [A4C G33A]: 0.29. In the case of GGCCGAGCUCAACACAGCGUGGCAAAGUGGCUUUGGCUAGACUGCC [A4C G33U], the self-cleavage stood at 0.06. Next, GGCCGAGCUCAACACAGCGUGGCAAAGUGGCUGUGGCUAGACAGCC [A4C U43A]: 0.06; GGCCGAGCUCAACACAGCGUGGCAAAGUGGCUGUGGCUAGACGGCC [A4C U43G]: 0.17. With GGCCGAGCUCAACACAGCGUGGCAAAGUGGCUGUGGCUAGACCGCC [A4C U43C], the self-cleavage is 0.08.

For the variant GGCCGAGCUCAACACAGCGUGGCAAAGUGGCUGUGCCUAGACUGCC [A4C G36C], the self-cleavage was determined as 0.09. Next, GGCCGAGCUCAACACAGCGUGGCAAAGUGGCUGUGACUAGACUGCC [A4C G36A]: 0.73; GGCCGAGCUCAACACAGCGUGGCAAAGUGGCUGUGUCUAGACUGCC [A4C G36U]: 0.1; GGCCGAGCUCAACACAGCGAGGCAAAGUGGCUGUGGCUAGACUGCC [A4C U20A]: 0.08. Next, GGCCGAGCUCAACACAGCGCGGCAAAGUGGCUGUGGCUAGACUGCC [A4C U20C]: 0.05; GGCCGAGCUCAACACAGCGGGGCAAAGUGGCUGUGGCUAGACUGCC [A4C U20G]: 0.1; GGCGGAGCUUAACACAGCGUGGCAAAGUGGCUGUGGCUAGACUGCC [A4G C10U]: 0.22. The same measure for GGCGGAGCUAAACACAGCGUGGCAAAGUGGCUGUGGCUAGACUGCC [A4G C10A]: 0.06; for GGCGGAGCUGAACACAGCGUGGCAAAGUGGCUGUGGCUAGACUGCC [A4G C10G]: 0.05. As to GGCGGAUCUCAACACAGCGUGGCAAAGUGGCUGUGGCUAGACUGCC [A4G G7U], the self-cleavage was determined as 0.18. Next, GGCGGACCUCAACACAGCGUGGCAAAGUGGCUGUGGCUAGACUGCC [A4G G7C]: 0.15. The same measure for GGCGGAACUCAACACAGCGUGGCAAAGUGGCUGUGGCUAGACUGCC [A4G G7A]: 0.25; for GGCGGAGAUCAACACAGCGUGGCAAAGUGGCUGUGGCUAGACUGCC [A4G C8A]: 0.32; for GGCGGAGUUCAACACAGCGUGGCAAAGUGGCUGUGGCUAGACUGCC [A4G C8U]: 0.24. Next, GGCGGAGGUCAACACAGCGUGGCAAAGUGGCUGUGGCUAGACUGCC [A4G C8G]: 0.11; GGCCGAGCUCAACACAGCGUGGCAAAGUGGCUGUCGCUAGACUGCC [A4C G35C]: 0.11; GGCCGAGCUCAACACAGCGUGGCAAAGUGGCUGUUGCUAGACUGCC [A4C G35U]: 0.18. With GGCCGAGCUCAACACAGCGUGGCAAAGUGGCUGUAGCUAGACUGCC [A4C G35A], the self-cleavage was 0.17.

Source of the values: the RNAGym collection of RNA variant scans (doi:10.7554/elife.90254).
